From patent US20160287732A1, “TUMOR THERAPY BY BISPECIFIC ANTIBODY PRETARGETING” (IMMUNOMEDICS, INC., priority 2015, published 2016)
Where two headings read alike, the source gives them in different places. Numbered stars: 1 amine (or outer) side, 2 acyl side, 3 side chain; on linkers, the order of the positions; unused ones are H or OH. Square brackets hold non-standard residues; d marks the D form. Side chains are listed from the residue outwards. Ends that are not written are not given here. Peptide text beside a SMILES is read from it. * marks the point of attachment. X1 = CCc1c2c(nc3ccc(O)cc13)-c1cc3c(c(=O)n1C2)COC(=O)[C@@]3(CC)OC(=O)*; DOTA = O=C(O)CN1CCN(CC(=O)O)CCN(CC(=O)*)CCN(CC(=O)O)CC1; NH(2-(imidazol-4-yl)ethyl) = c1ncc(CCN*)[nH]1; Suc = O=C(CCC(=O)[*:2])[*:1]

How the values were obtained:
[1] = ^111In IMP 453 biodistribution in scLS174T tumor-bearing nude mice, with or without TF2 pretargeting; format: in vivo; details: nude, mouse
Source text: (§1) The higher uptake in the kidneys of pretargeted mice is probably due the presence of bispecific antibody in the blood or kidney. […] In the absence of TF2, there was little uptake of labeled peptide into the tumor (Table 5).

[2] = system: LS174 human colon cancer cell line; test: as above; format: in vivo; details: for Tissue uptake, Kidney / Tissue uptake, Tumor: 3 Hr
Source text: as §1

in vivo = test: in vivo; set-up: species or system mice; details: mouse
Method: (§2) IMP288 was labeled with ^213Bi and in vitro binding characteristics (IC50, Kd, internalization) were compared with those of ^177Lu-IMP288. Tumor targeting of ^213Bi-IMP288 was studied in mice with s.c. LS174T xenografts that were pretargeted with TF2 bispecific antibody. Finally, the effect of ^213Bi-IMP288 (2.5-14 MBq) on the growth of LS174T tumors was assessed.

s.c. LS174T xenografts = test: in vivo; set-up: species or system mice; details: mouse
Method: as §2

LS174T tumors = test: Effect of ^213Bi-IMP288 on growth of TF2-pretargeted LS174T tumors; format: in vivo, nude mice; details: single injection; 5 nmol TF2 then 0.28 nmol ^213Bi-IMP288
Method: FIG. 5. Growth curves of subcutaneous LS174T xenografts in nude mice. Mice were injected with 5 nmol TF2 bispecific antibody, followed by a single injection of 0.28 nmol ^213Bi-IMP288 or PBS.
as §2

PKA = details: cited from earlier work
TF2 (human) = test: in vitro binding assay, format and partner not described; TF2 (anti-CEA x anti-HSG) is the pretargeting antibody of the example
[3] = system: human colorectal adenocarcinoma xenografts (LS 174T); test: Pretargeting study with ^125I-TF2 and ^99mTc-IMP-245 in mice bearing s.c. LS 174T xenografts; format: in vivo, female athymic nude mice; details: pretargeted with TF2
Method: A pretargeting study was performed with TF2 in female athymic nude mice bearing s.c. human colorectal adenocarcinoma xenografts (LS 174T). Cells were expanded in tissue culture until enough cells had been grown to inject 55 mice s.c. with 1×10^7 cells per mouse. After one week, tumors were measured and mice assigned to groups of 5 mice per time-point. The mean tumor size at the start of this study was 0.105±0.068 cm^3. Twenty mice were injected with 80 μg ^125I-TF2 (500 pmoles, 2 μCi) and 16 h later administered ^99mTc-IMP-245 (40 μCi, 92 ng, 50 pmoles). The mice were sacrificed and necropsied at 0.5, 1, 4, and 24 h post-peptide injection. In addition, 3 mice of the 24 h time-point groups were imaged on a γ-camera at 1, 4, and 24 h post-injection. As a control, 3 additional mice received only ^99mTc-IMP-245 (no pretargeting) and were imaged at 1, 4, and 24 h post-injection, before being necropsied after the 24 h imaging session. Tumor as well as various tissues were removed and placed in a γ-counter to determine % ID/g in tissue at each time-point.

[4] = target: DDD of the RII form of PKA (Homo sapiens, UniProt P13861); details: cited from earlier work
RIIα dimers = RIIα dimers (Homo sapiens, UniProt P13861); details: read-out: Affinity / binding constant; cited from earlier work
RII isoform of PKA = RII isoform of PKA (Homo sapiens, UniProt P13861); details: cited from earlier work
[5] = blood, pretargeted with TF2, read-out: Tissue uptake, Blood
[6] = kidney, pretargeted with TF2, read-out: Tissue uptake, Kidney
[7] = large intestine, pretargeted with TF2, read-out: Tissue uptake, Lg. Int.
[8] = liver, pretargeted with TF2, read-out: Tissue uptake, Liver
[9] = lung, pretargeted with TF2, read-out: Tissue uptake, Lung
[10] = small intestine, pretargeted with TF2, read-out: Tissue uptake, Sm. Int.
[11] = spleen, pretargeted with TF2, read-out: Tissue uptake, Spleen
[12] = stomach, pretargeted with TF2, read-out: Tissue uptake, Stomach
[13] = tumor, pretargeted with TF2, read-out: Tissue uptake, Tumor

Sequence of DDD of the RII form of PKA (P13861 whole entry): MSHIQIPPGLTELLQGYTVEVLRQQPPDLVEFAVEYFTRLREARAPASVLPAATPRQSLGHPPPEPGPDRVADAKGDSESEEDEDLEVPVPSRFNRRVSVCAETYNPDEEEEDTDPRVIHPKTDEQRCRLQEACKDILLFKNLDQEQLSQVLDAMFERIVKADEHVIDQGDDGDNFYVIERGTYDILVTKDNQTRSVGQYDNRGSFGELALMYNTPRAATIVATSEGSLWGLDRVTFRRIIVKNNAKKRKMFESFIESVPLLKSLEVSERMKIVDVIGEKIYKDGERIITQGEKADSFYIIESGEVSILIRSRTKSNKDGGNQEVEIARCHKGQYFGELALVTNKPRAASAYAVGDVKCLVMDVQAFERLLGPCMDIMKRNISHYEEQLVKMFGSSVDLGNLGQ
Sequence of RIIα dimers (P13861 whole entry, canonical isoform): as the sequence (P13861 whole entry) above
Sequence of RII isoform of PKA (P13861 whole entry, canonical isoform): as the sequence (P13861 whole entry) above
Sequence of TF2 (human) (heavy, as listed by the source, chain 1 of 2): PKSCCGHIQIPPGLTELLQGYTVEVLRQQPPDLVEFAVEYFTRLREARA
Sequence of TF2 (human) (heavy, as listed by the source, chain 2 of 2): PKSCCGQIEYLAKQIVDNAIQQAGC

Q: With `CCc1c2c(nc3ccc(O)cc13)-c1cc3c(c(=O)n1C2)COC(=O)[C@@]3(CC)OC(=O)SC[C@@H](NC(=O)CN1CCN(CC(=O)O)CCN(CC(=O)O)CCN(CC(=O)O)CC1)C(=O)N[C@H](C)C(=O)N[C@H](CCCCNC(=O)CNC(=O)CCC(=O)NCCc1cnc[nH]1)C(=O)N[C@H](Cc1ccc(O)cc1)C(=O)N[C@H](CCCCNC(=O)CNC(=O)CCC(=O)NCCc1cnc[nH]1)C(N)=O` [^111In IMP 453, metal not drawn] ({DOTA}-[dC](X1)[dA][dK]([Gly-Suc-NH(2-(imidazol-4-yl)ethyl)])[dY][dK]([Gly-Suc-NH(2-(imidazol-4-yl)ethyl)])-NH2) as the molecule, how does the tissue uptake at 3 h [1, 5] read?
A: 0.29 ± 0.03 %ID/g

Q: What about the tissue uptake at 3 h ([1]; blood, without bsMAb, read-out: Tissue uptake, Blood) of the same molecule?
A: 0.24 ± 0.01 %ID/g

Q: What about the tissue uptake at 24 h [1, 5] of the same molecule?
A: 0.09 ± 0.04 %ID/g

Q: And the tissue uptake at 48 h [1, 5]?
A: 0.04 ± 0.01 %ID/g

Q: What about the tissue uptake at 3 h [1, 6] of the same molecule?
A: 21.1 ± 4.14 %ID/g

Q: What about the tissue uptake at 3 h ([1]; kidney, without bsMAb, read-out: Tissue uptake, Kidney) of the same molecule?
A: 9.97 ± 0.94 %ID/g

Q: What about the tissue uptake at 24 h [1, 6] of the same molecule?
A: 10 ± 2.45 %ID/g

Q: And the tissue uptake at 48 h [1, 6]?
A: 7.11 ± 1.17 %ID/g

Q: And the tissue uptake at 3 h [1, 7]?
A: 1.23 ± 1.41 %ID/g

Q: What about the tissue uptake at 3 h ([1]; large intestine, without bsMAb, read-out: Tissue uptake, Lg. Int.) of the same molecule?
A: 0.52 ± 0.27 %ID/g

Q: And the tissue uptake at 24 h [1, 7]?
A: 0.23 ± 0.05 %ID/g

Q: What about the tissue uptake at 48 h [1, 7] of the same molecule?
A: 0.16 ± 0.07 %ID/g

Q: And the tissue uptake at 3 h [1, 8]?
A: 0.56 ± 0.08 %ID/g

Q: And the tissue uptake at 3 h ([1]; liver, without bsMAb, read-out: Tissue uptake, Liver)?
A: 0.37 ± 0.18 %ID/g

Q: And the tissue uptake at 24 h [1, 8]?
A: 0.53 ± 0.19 %ID/g

Q: What about the tissue uptake at 48 h [1, 8] of the same molecule?
A: 0.36 ± 0.06 %ID/g

Q: What about the tissue uptake at 3 h [1, 9] of the same molecule?
A: 0.56 ± 0.1 %ID/g

Q: What about the tissue uptake at 3 h ([1]; lung, without bsMAb, read-out: Tissue uptake, Lung) of the same molecule?
A: 0.31 ± 0.14 %ID/g

Q: What about the tissue uptake at 24 h [1, 9] of the same molecule?
A: 0.18 ± 0.07 %ID/g

Q: What about the tissue uptake at 48 h [1, 9] of the same molecule?
A: 0.14 ± 0.03 %ID/g

Q: And the tissue uptake at 3 h [1, 10]?
A: 0.68 ± 0.45 %ID/g

Q: What about the tissue uptake at 3 h ([1]; small intestine, without bsMAb, read-out: Tissue uptake, Sm. Int.) of the same molecule?
A: 0.2 ± 0.1 %ID/g

Q: And the tissue uptake at 24 h [1, 10]?
A: 0.22 ± 0.09 %ID/g

Q: And the tissue uptake at 48 h [1, 10]?
A: 0.12 ± 0.03 %ID/g

Q: And the tissue uptake at 3 h [1, 11]?
A: 0.37 ± 0.11 %ID/g

Q: What about the tissue uptake at 3 h ([1]; spleen, without bsMAb, read-out: Tissue uptake, Spleen) of the same molecule?
A: 0.22 ± 0.07 %ID/g

Q: What about the tissue uptake at 24 h [1, 11] of the same molecule?
A: 0.66 ± 0.89 %ID/g

Q: And the tissue uptake at 48 h [1, 11]?
A: 0.25 ± 0.07 %ID/g

Q: And the tissue uptake at 3 h [1, 12]?
A: 0.41 ± 0.33 %ID/g

Q: What about the tissue uptake at 3 h ([1]; stomach, without bsMAb, read-out: Tissue uptake, Stomach) of the same molecule?
A: 0.11 ± 0.06 %ID/g

Q: And the tissue uptake at 24 h [1, 12]?
A: 0.2 ± 0.12 %ID/g

Q: And the tissue uptake at 48 h [1, 12]?
A: 0.07 ± 0.01 %ID/g

Q: What about the tissue uptake at 3 h [1, 13] of the same molecule?
A: 28.3 ± 4.03 %ID/g

Q: And the tissue uptake at 3 h ([1]; tumor, without bsMAb, read-out: Tissue uptake, Tumor)?
A: 0.37 ± 0.09 %ID/g

Q: What about the tissue uptake at 24 h [1, 13] of the same molecule?
A: 15.4 ± 1.18 %ID/g

Q: What about the tissue uptake at 48 h [1, 13] of the same molecule?
A: 9.69 ± 1.97 %ID/g

Q: What about the “Tissue uptake, Kidney” value ([2]; pretargeted with TF2) of the same molecule?
A: 21 % ID/g

Q: What about the “Tissue uptake, Tumor” value ([2]; pretargeted with TF2) of the same molecule?
A: 28 % ID/g

Q: What about the “Tissue uptake, Kidney” value ([2]; without bsMAb) of the same molecule?
A: 9.97 % ID/g

Q: And the “Tissue uptake, Tumor” value ([2]; without bsMAb)?
A: little uptake

Q: What about the “Initial kidney uptake eliminated” value ([2]; by 24 hr, pretargeted with TF2) of the same molecule?
A: 50%

Q: What about the Route of clearance ([2]; pretargeted with TF2) of the same molecule?
A: Most of the peptide was cleared by urinary excretion

Q: Which results are given for `NC(=O)[C@@H](CCCCNC(=O)CNC(=O)CCC(=O)NCCc1c[nH]cn1)NC(=O)[C@@H](CCC(=O)O)NC(=O)[C@@H](CCCCNC(=O)CNC(=O)CCC(=O)NCCc1c[nH]cn1)NC(=O)[C@@H](Cc1ccc(O)cc1)NC(=O)CN1CCN(CC(=O)O)CCN(CC(=O)O)CCN(CC(=O)O)CC1` [^213Bi-IMP288, metal not drawn] ({DOTA}-[dY][dK]([Gly-Suc-NH(2-(imidazol-4-yl)ethyl)])[dE][dK]([Gly-Suc-NH(2-(imidazol-4-yl)ethyl)])-NH2)?
A: tissue uptake at 0.25 h (in vivo): 9.3 ± 2 %ID/g; Tumor targeting relative to ^177Lu-IMP288 (s.c. LS174T xenografts): comparable; Tumor growth (LS174T tumors): significantly inhibited

Q: Which PKA isoform preference (PKA) does the source give for DLIEEAASRIVDAVIEQVKAAGAY [Ht-31] here?
A: greater affinity for the RII isoform

Q: With FEELAWKIAKMIWSDVFQQC [PV-38] as the molecule, how does the PKA isoform preference (PKA) read?
A: higher affinity for RI

Q: With IMP288 (peptide) as the molecule, how does the IQ (TF2 (human)) read?
A: 0.8 nM

Q: For “IMP-245: di-HSG-based peptide effector labeled with ^99mTc (FKYKK; not fully specified; also: labelled with 99mTc)”, which Tumor uptake ([3]; 0.5 h post-peptide injection) is on record?
A: 22±3 % ID/g

Q: What about the Tumor uptake ([3]; 1 h post-peptide injection) of the same molecule?
A: 30±14 % ID/g

Q: What about the Tumor uptake ([3]; 4 h post-peptide injection) of the same molecule?
A: 25±4 % ID/g

Q: And the Tumor uptake ([3]; 24 h post-peptide injection)?
A: 16±3 % ID/g

Q: For LEQYANQLADQIIKEATE [RIAD], which PKA isoform preference (PKA) is on record?
A: higher affinity for RI

Q: Which “Affinity for the RII DDD sequence” value [4] does the source give for “PEDAELVRLSKRDVENAVLKAVQQY [AKAP7δ-L308D-pep]” here?
A: particularly high affinities

Q: For “PEDAELVRLSKRLVENAVLKAVQQY [AKAP7δ-wt-pep]”, which “Affinity for the RII DDD sequence” value [4] is on record?
A: particularly high affinities

Q: With “PEDAELVRTSKRLVENAVLKAVQQY [AKAP7δ-L304T-pep]” as the molecule, how does the “Affinity for the RII DDD sequence” value [4] read?
A: particularly high affinities

Q: With QIEYLAKQIVDNAIQQA [AKAP-IS] as the molecule, how does the Kd (RIIα dimers) read?
A: 0.4 nM

Q: And the “Affinity for the RII DDD sequence” value [4]?
A: particularly high affinities

Q: With QIEYVAKQIVDYAIHQA [SuperAKAP-IS] as the molecule, how does the “Selectivity for the RII isoform of PKA compared with the RI isoform” value (RII isoform of PKA) read?
A: five order of magnitude higher
